Measured values as given in patent publication US20140221271A1.
Read-outs that look alike come from different tables or passages of the source.

Columns and labels:
[1] = molecular target: Kv1.3 K+ ion channel; experiment: cell-based or functional assay
[2] = molecular target: Kv1.3 K+ ion channel; experiment: cell-based or functional assay; remark: listed apart in the source

ShK-186 ((phospho-Tyr)-AEEA-ShK-NH2) (peptide)
IC50, reduction in peak whole-cell Kv1.3 current at 40 mV (patch-clamp) [1]: 0.069 nM

RSCIDTIPKSRCTAFQCKHSMKYRLSFCRKTCGTC (modifications not checked) [ShK-221-gadolinium (DOTA-conjugate of ShK-198 coordinated with gadolinium)]
IC50, reduction in peak whole-cell Kv1.3 current at 40 mV (patch-clamp) [2]: 0.0582 nM

RSCIDTIPKSRCTAFQCKHSMKYRLSFCRKTCGTC (modifications not checked) [ShK-221-indium (DOTA-conjugate of ShK-198 coordinated with indium)]
IC50, reduction in peak whole-cell Kv1.3 current at 40 mV (patch-clamp) [2]: 0.0638 nM
